# Laboratory results from the RNAGym collection of RNA variant scans (doi:10.7554/elife.90254).
# B1: OR4K15 (parent)
# chain: GUUAACGGUCAUAGGCCAUGGAAACUAGGAGCACCAUUUCGCUGCCAGUGAAGAAAUGAACAAAGAAAAUCUGGGCCAGGCAGGCAUCAAAAGAAAUAGUCUUGCGCUCAACCAGAAAGUCUGUAAUCAUUUUAAGGGUA
# Variants of: B1
# Assay: self-cleavage, relative activity (ratio to wild type); higher = more cleavage; in vitro, sequencing; the parent is a self-cleaving ribozyme
row,Variant,self-cleavage
1,GUUAACGGUCAUUGGCCAUGGAAACUAGGAGCACCAUUUCGCUGCCAGUGAAGAAAUGAACAAAGAAAAUCUGGGCCAAGCAGGCAUCAAAAGAAAUAGUCUUGCGCUCAACCAGAAAGUCUGUAAUCAUUUUAAGGGUA [A13U G79A],0.19
2,GUUAACGGUCAUUGGCCAUGGAAACUAGGAGCACCAUUUCGCUGCCAGUGAAGAAAUGAACAAAGAAAAUCUGGGCCAGGCAGGCAACAAAAGAAAUAGUCUUGCGCUCAACCAGAAAGUCUGUAAUCAUUUUAAGGGUA [A13U U87A],1.61
3,GUUAACGGUCAUAAGCCAUGGAAACUAGGAGCACCAUUUCGCUGCCAGUGGAGAAAUGAACAAAGAAAAUCUGGGCCAGGCAGGCAUCAAAAGAAAUAGUCUUGCGCUCAACCAGAAAGUCUGUAAUCAUUUUAAGGGUA [G14A A51G],1.18
4,GUUAACGGUCAUUGGCCAUGGAAACUAGGAGCACCAUUCCGCUGCCAGUGAAGAAAUGAACAAAGAAAAUCUGGGCCAGGCAGGCAUCAAAAGAAAUAGUCUUGCGCUCAACCAGAAAGUCUGUAAUCAUUUUAAGGGUA [A13U U39C],1.04
5,GUUAACGGUCAUUGGCCAUGGAAACUAGGAGCACCAUUUCGCUGCCAGUGAAGAAAUGAACAAAGAAAAUCUGGGCCAGGCAGGCAUCAAAAGAAAUAGUCUUGCGCUCAACCAGAAAGUCUGUUAUCAUUUUAAGGGUA [A13U A125U],1.71
6,GUUAACGGUCAUAAGCCAUGGGAACUAGGAGCACCAUUUCGCUGCCAGUGAAGAAAUGAACAAAGAAAAUCUGGGCCAGGCAGGCAUCAAAAGAAAUAGUCUUGCGCUCAACCAGAAAGUCUGUAAUCAUUUUAAGGGUA [G14A A22G],0.51
7,GUUAACGGUCAUAAGCCAUGGAAACUAGGAGCACCAUUUCGCUGCCAGUGAAGAAAUGAACAAAGAAAAUCUGGGCCAGGCAGGCAUCAAAAGAAAUAGUCUUGCGCUCAACCAGAAAGUCUGUAAUCUUUUUAAGGGUA [G14A A129U],0.41
8,GUUAACGGUCAUAAGCCAUGGAAACUAGGAGCACCAUUUCGCUGCCAGUGAAGAAAUGAACAAAGAAAAUCUGGGCCAGGCAGGCAUCAAAAGAAAUAGUCUUGCGCUCAACCAGAGAGUCUGUAAUCAUUUUAAGGGUA [G14A A117G],1.22
9,GUUAACGGUCAUAAGCCAUGGAAACUAGGAGCACCAUUUCGCUGCCAGUGAAGAAAUGAACAAAGAAAAUCUGGGCCAGGCAGGCAUCAAAAGAAAUAGUCUUGCGCUCAACCAGAAAGUCUGUAACCAUUUUAAGGGUA [G14A U127C],0.28
10,GUUAACGGUCAUAAGCCAUGGAAACUAGGAGCACCAUUUCGCUGCCAGUGAAGAAAUGAACAAAGAAAAUCUGGGCCAGGCAGGCAUCAAGAGAAAUAGUCUUGCGCUCAACCAGAAAGUCUGUAAUCAUUUUAAGGGUA [G14A A91G],1.67
11,GUUAACGGUCAUUGGCCAUGGAAACUAGGAGCACCAUUUCGCUGCCAGUGAAGAAAUGAACAAAGAAAAUCUGGGCCAGGCAGGCAUCAAAAGAAAUAGUCUUGCGCUCAACCAGUAAGUCUGUAAUCAUUUUAAGGGUA [A13U A116U],0.25
12,GUUAACGGUCAUUGGCCAUGGAAACUAGGAGCACCAUUUCGCUGCCAGUGAAGAAAUGAACAAAGAAAAUCUGGGCCAGGCAGGCAUCAAAAGAAAUAGUCUUGCGCUCAACCAGAAAGUCUGUAAUCACUUUAAGGGUA [A13U U130C],0.69
13,GUUAACGGUCAUAAGCCAUGGAAACUAGGAGCACCAUUUCGCUGCCAGUGAAGAAAUGAACAAAGAGAAUCUGGGCCAGGCAGGCAUCAAAAGAAAUAGUCUUGCGCUCAACCAGAAAGUCUGUAAUCAUUUUAAGGGUA [G14A A67G],1.66
14,GUUAACGGUCAUAAGCCACGGAAACUAGGAGCACCAUUUCGCUGCCAGUGAAGAAAUGAACAAAGAAAAUCUGGGCCAGGCAGGCAUCAAAAGAAAUAGUCUUGCGCUCAACCAGAAAGUCUGUAAUCAUUUUAAGGGUA [G14A U19C],1.44
15,GUUAACGGUCAUAAGCCAUGGAAACUAGGAGCACCAUUUCGCUGCCAGUGAAGAAGUGAACAAAGAAAAUCUGGGCCAGGCAGGCAUCAAAAGAAAUAGUCUUGCGCUCAACCAGAAAGUCUGUAAUCAUUUUAAGGGUA [G14A A56G],1.1
16,GUUAACGGUCAUUGGCCAUGGAAACUAGGAGCACCAUUUCGCUGCCAGUGAAGAAAUGAACAAAGAAAAUCUGGGCCAGGCAGGCAUCAAAAGAAAUAGUCUUGCGCUCAACCAGAAAGUCUGCAAUCAUUUUAAGGGUA [A13U U124C],1.37
17,GUUAACGGUCAUAAGCCAUGGAAACUAGGAGCACCAUUUCGCUGCCAGUGAAGAAAUGAACAAAGAAAAUCCGGGCCAGGCAGGCAUCAAAAGAAAUAGUCUUGCGCUCAACCAGAAAGUCUGUAAUCAUUUUAAGGGUA [G14A U72C],0.22
18,GUUAACGGUCAUAAGCCAUGGAAACUAGGAGCACCAUUUCGCUGCCAGUGAAGAAAUGAACAAAGAAAAUCUGGGCCAGGCAGGCAUCGAAAGAAAUAGUCUUGCGCUCAACCAGAAAGUCUGUAAUCAUUUUAAGGGUA [G14A A89G],0.65
19,GUUAACGGUCAUAAGCCAUGGAAACUAGGAGCACCAUUUCGCUGCCAGUGAAGUAAUGAACAAAGAAAAUCUGGGCCAGGCAGGCAUCAAAAGAAAUAGUCUUGCGCUCAACCAGAAAGUCUGUAAUCAUUUUAAGGGUA [G14A A54U],1.55
20,GUUAACGGUCAUAAGCCAUGGAAACUAGGAGCACCAUUUCGCUGCCAGUGAAGAAAUGAACAAAGAAAAUCUGGGCCAGGCAGGCAUCAAAAGAAAUAGUCUUGCACUCAACCAGAAAGUCUGUAAUCAUUUUAAGGGUA [G14A G106A],0.02
21,GUUAACGGUCAUUGGCCAUGGAAACUAGGAGCACCAUUUCGCUGCCAGUGAAGAAACGAACAAAGAAAAUCUGGGCCAGGCAGGCAUCAAAAGAAAUAGUCUUGCGCUCAACCAGAAAGUCUGUAAUCAUUUUAAGGGUA [A13U U57C],0.64

row,Variant,self-cleavage
1,GUUAACGGUCAUAAGCCAUGGAAACUAGGAGCACCAUUUCGCUGCCAGUGAAGAGAUGAACAAAGAAAAUCUGGGCCAGGCAGGCAUCAAAAGAAAUAGUCUUGCGCUCAACCAGAAAGUCUGUAAUCAUUUUAAGGGUA [G14A A55G],1.58
2,GUUAACGGUCAUAAGCCAUGGAAACUAGGAGCGCCAUUUCGCUGCCAGUGAAGAAAUGAACAAAGAAAAUCUGGGCCAGGCAGGCAUCAAAAGAAAUAGUCUUGCGCUCAACCAGAAAGUCUGUAAUCAUUUUAAGGGUA [G14A A33G],0.87
3,GUUAACGGUCAUUGGCCAUGGAAACUAGGAGCACCAUUUCGCUGCCAGUGAAGAAAUGAACAAAGAAAAUCUGGGCCAGGCAGGCAUCAAAAGAAAUAGUCUUGCGCUCAACCAGAAAGUCUGUAAUCGUUUUAAGGGUA [A13U A129G],1.57
4,GUUAACGGUCAUAAGCCAUGGAAACUAGGAGCACCGUUUCGCUGCCAGUGAAGAAAUGAACAAAGAAAAUCUGGGCCAGGCAGGCAUCAAAAGAAAUAGUCUUGCGCUCAACCAGAAAGUCUGUAAUCAUUUUAAGGGUA [G14A A36G],1.17
5,GUUAACGGUCAUAAGCCAUGGAAACUAGGAGCACCAUUUCGCUGCCAGUGAAGAAAUGAACAAAGAAAACCUGGGCCAGGCAGGCAUCAAAAGAAAUAGUCUUGCGCUCAACCAGAAAGUCUGUAAUCAUUUUAAGGGUA [G14A U70C],0.96
6,GUUAACGGUCAUAAGCCAUGGAAACUAGGAGCACCAUUUCGCUGCCAGUGAAGAAAUGAACAAAGAAAAUCUGGGCCAGGCAGGCAUCAAAAGAAAUAGUCUUGCGCUCAACCUGAAAGUCUGUAAUCAUUUUAAGGGUA [G14A A114U],0.01
7,GUUAACGGUCAUAAGCCAUGGAAACUAGGAGCACCAUUUCGCUGCCAGUGAAGAAAUGGACAAAGAAAAUCUGGGCCAGGCAGGCAUCAAAAGAAAUAGUCUUGCGCUCAACCAGAAAGUCUGUAAUCAUUUUAAGGGUA [G14A A59G],1.27
8,GUUAACGGUCAUAAGCCAUGGAAACUAGGAGCACCAUUUCGCUGCCGGUGAAGAAAUGAACAAAGAAAAUCUGGGCCAGGCAGGCAUCAAAAGAAAUAGUCUUGCGCUCAACCAGAAAGUCUGUAAUCAUUUUAAGGGUA [G14A A47G],0.81
9,GUUAACGGUCAUAAGCCUUGGAAACUAGGAGCACCAUUUCGCUGCCAGUGAAGAAAUGAACAAAGAAAAUCUGGGCCAGGCAGGCAUCAAAAGAAAUAGUCUUGCGCUCAACCAGAAAGUCUGUAAUCAUUUUAAGGGUA [G14A A18U],0.99
10,GUUAACGGUCAUUGGCCAUGGAAACUAGGAGCACCAUUUCGCUGCCAGUGAAGAAAUGAACAAAGAAAAUCCGGGCCAGGCAGGCAUCAAAAGAAAUAGUCUUGCGCUCAACCAGAAAGUCUGUAAUCAUUUUAAGGGUA [A13U U72C],0.49
11,GUUAACGGUCAUAAGCCAUGGAAACAAGGAGCACCAUUUCGCUGCCAGUGAAGAAAUGAACAAAGAAAAUCUGGGCCAGGCAGGCAUCAAAAGAAAUAGUCUUGCGCUCAACCAGAAAGUCUGUAAUCAUUUUAAGGGUA [G14A U26A],1.2
12,GUUAACGGUCAUAAGCCAUGGAAACUAGGAGCACCAUUUCGCUGCCAGUGAAGAAAUGAACAAAGAAAAUCUGGGCCAGGCAGGCAUCAAAAGAAAUAGUCUUGCGCUCAACCAGAAGGUCUGUAAUCAUUUUAAGGGUA [G14A A118G],0.59
13,GUUAACGGUCAUAAGCCAUGGAAACUAGGAGCACCAUUUCGCUGCCAGUGAAGAAAUGAACAAAGAAAAUCUGGGCCAGGCAGGCAUCAAAAGAAAUAGUCUUGCGCUCAACCAGAAAGUCAGUAAUCAUUUUAAGGGUA [G14A U122A],1.16
14,GUUAACGGUCAUAAGCCAUGGAAACUAGGAGCACCAUUUCGCUGCCAGUGAAGAAAUGAACAAAGAAAAUCUGGGCCAGGCAGGCAUCAAAGGAAAUAGUCUUGCGCUCAACCAGAAAGUCUGUAAUCAUUUUAAGGGUA [G14A A92G],0.96
15,GUUAACGGUCAUAAGCCAUGGAAACUAGGAGCACCAUUUCGCCGCCAGUGAAGAAAUGAACAAAGAAAAUCUGGGCCAGGCAGGCAUCAAAAGAAAUAGUCUUGCGCUCAACCAGAAAGUCUGUAAUCAUUUUAAGGGUA [G14A U43C],0.99
16,GUUAACGGUCAUUGGCCAUGGAAACUAGGAGCACCAUUUCGCUGCCAGUGAAGAAAUGAACAAAGAAAAUCUGGGCCAGGCAGGCAUCAAAAGAAAUAGUCUUGCGCUCAACCAGAAAGUCAGUAAUCAUUUUAAGGGUA [A13U U122A],1.5
17,GUUAACGGUCAUUGGCCAUGGAAACUAGGAGCACCAUUUCGCUGCCAGUGAAGAAAUGAACAAAGAAAAUCUGGGCCAGGCAGGCAUCAAAAGAAAUAGUCUUGCGCUCAACCAGAAAGUCCGUAAUCAUUUUAAGGGUA [A13U U122C],0.56
18,GUUAACGGUCAUUGGCCAUGGAAACUAGGAGCACCAUUUCGCCGCCAGUGAAGAAAUGAACAAAGAAAAUCUGGGCCAGGCAGGCAUCAAAAGAAAUAGUCUUGCGCUCAACCAGAAAGUCUGUAAUCAUUUUAAGGGUA [A13U U43C],1.24
19,GUUAACGGUCAUUGGCCAUGGAAACUAGGAGCACCAUUUCGCUGCCAGUGAAGAAAUGAACAAAGAAAAUCUGGGCCAGGCAGGCAUCAAAAGAAAUAGUCCUGCGCUCAACCAGAAAGUCUGUAAUCAUUUUAAGGGUA [A13U U102C],1.56
20,GUUAACGGUCAUAAGCCAUGGAAACUAGGAGCACCAUUUCGCUGCCAGUGAAGAAAUGAACAAAGAAAAUCUGGGCCAGGCAGGCAUCAAAAGAGAUAGUCUUGCGCUCAACCAGAAAGUCUGUAAUCAUUUUAAGGGUA [G14A A95G],1.24
